Data published in patent US20240034792A1 (HARBOUR BIOMED SHANGHAI, published 2024).

How the values were obtained:
[1] = target: T1, Human PD-1-His protein (ACROBiosystems, # PD1-H5221) (human, UniProt Q15116 25-167); test: ELISA, plate-coated human PD-1-His
T1 construct: Bought reagent, coated on the ELISA plate; also called human PD-1 protein; human PD-1 antigen; not shown: His tag
Protocol: Human PD-1-His protein (ACROBiosystems, # PD1-H5221) was diluted to 2 μg/mL with PBS, added to a 96-well plate (Corning, cat#9018) at 100 μL/well, and incubated at 4° C. overnight. After the liquid was discarded, the plate was washed 3 times with PBST buffer (pH 7.4, containing 0.05% Tween-20), and 250 μL of 2% BSA blocking buffer was added. The plate was incubated at 37° C. for 1 h. The blocking buffer was discarded, and the plate was washed 3 times with PBST buffer (pH 7.4, containing 0.05% Tween-20). The test antigen-binding protein was 5-fold diluted in sequence at an initial concentration of 100 nM for a total of 8-10 concentration gradients, and added at 100 μL/well. The plate was incubated at 37° C. for 1 h. An isotype antibody was taken as a control. After the plate was washed 3 times with PBST buffer (pH 7.4, containing 0.05% Tween-20), a 4000-fold diluted goat anti-human HRP secondary antibody (Invitrogen, #A18805) was added. The plate was incubated away from light at 37° C. for 1 h. After the plate was washed 3 times with PBST buffer (pH 7.4, containing 0.05% Tween-20), TMB (Biopanda, # TMB-S-003) was added at 100 μL/well. The plate was left away from light at room temperature for about 5 min. The reactions were terminated by adding 50 μL of stop buffer (BBI life sciences, #E661006-0200) to each well, and the absorbance values at 450 nm (OD450) were measured using a microplate reader (PerkinElemer, #Enspire). The half maximal effective concentration (EC₅₀) was calculated from the measurement results.

[2] = target: T2, Human PD-1 expressed on CHO-K1 cells (CHO-K1/hPD-1) (human, UniProt Q15116 25-288); test: FACS, CHO-K1/hPD-1 cells
T2 construct: whole, on cells; also called CHO-K1 cells overexpressing human PD-1
T2 sequence (Q15116 25-288): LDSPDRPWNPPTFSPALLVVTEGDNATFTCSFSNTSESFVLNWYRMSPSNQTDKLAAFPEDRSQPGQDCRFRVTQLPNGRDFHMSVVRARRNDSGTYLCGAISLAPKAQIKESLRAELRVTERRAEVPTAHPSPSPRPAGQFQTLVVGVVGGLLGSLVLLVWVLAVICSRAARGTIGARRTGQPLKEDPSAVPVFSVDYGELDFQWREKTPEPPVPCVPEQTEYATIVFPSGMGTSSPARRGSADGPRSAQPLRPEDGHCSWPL

[3] = target: T3, Human PD-1 protein with histidine and avi tags (ACRO Biosystems, PD1-H82E4) (human, UniProt Q15116 25-167); test: BLI (Octet Red96e), PD-1 captured on SA sensor, 1:1 local fit
T3 construct: Captured on streptavidin (SA) sensors in the BLI assay; not shown: histidine and avi tags
T3 sequence (Q15116 25-167 limits assumed): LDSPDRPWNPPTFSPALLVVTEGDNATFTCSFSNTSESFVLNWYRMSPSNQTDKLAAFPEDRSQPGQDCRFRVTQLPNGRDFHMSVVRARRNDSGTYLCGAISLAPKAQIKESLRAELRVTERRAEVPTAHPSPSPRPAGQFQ
Protocol: Human PD-1 proteins with histidine and avi tags were purchased from the manufacturer ACRO Biosystems (Cat#: PD1-H82E4), and the assay buffer was 1× kinetics buffer (diluted from 10× kinetics buffer (ForteBio, Cat#: 18-1105)) for kinetic assay and dilution of antigens and antibodies. The binding kinetics between the antigen and the antibody was analyzed by the biolayer interferometry (BLI) technique using an Octet molecular interaction analyzer (ForteBio, model: Octet Red96e).
When the binding kinetics between the antigen and the antibody was determined, the rotation speed of the sensor was set at 1000 rpm/min. The eight SA sensors placed in a column were first equilibrated in an assay buffer for 10 min and then used to capture PD-1 at a capture height of 0.5 nm. Thereafter, the SA sensors were equilibrated in the assay buffer for 100 s, and then were associated with each antibody diluted to a single concentration and with a row of blank buffer wells for 180 s, followed by dissociation for 600 s. A new column of SA sensors were used in each cycle.
When data analysis was performed using Octet Data Analysis software (Fortebio, version 11.0), the reference signals were subtracted by a single reference mode (reference well), the data were fitted by a “1:1 Local fitting” method, and the kinetic parameters of the binding of the antigen to the antibody were calculated to obtain kon (1/Ms) values, kdis (1/s) values and KD (M) values.

[4] = target: T4, Cynomolgus monkey PD-1-His protein (AcroBiosystems, # PD1-05223) (cynomolgus monkey, UniProt B0LAJ3 25-170); test: ELISA, plate-coated cynomolgus monkey PD-1-His
T4 construct: Bought reagent, coated on the ELISA plate; also called cynomolgus monkey PD-1 protein
T4 sequence (B0LAJ3 entry or part of it limits assumed): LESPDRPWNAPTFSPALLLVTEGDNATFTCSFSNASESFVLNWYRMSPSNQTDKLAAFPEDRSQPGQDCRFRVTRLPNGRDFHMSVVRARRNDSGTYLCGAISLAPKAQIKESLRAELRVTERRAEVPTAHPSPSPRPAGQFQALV
Protocol: Cynomolgus monkey PD-1-His protein (AcroBiosystems, # PD1-05223) was diluted to 2 μg/mL with PBS, added to a 96-well plate (Corning, #9018) at 100 μL/well, and incubated at 4° C. overnight. After the liquid was discarded, the plate was washed 3 times with PBST, blocked by adding 250 μL of 2% BSA, and incubated at room temperature for 1 h. The blocking buffer was discarded, and the plate was washed 3 times with PBST buffer (pH 7.4, containing 0.05% Tween-20). The test antigen-binding protein was diluted to 5 μg/mL, and added at 100 μL/well. The plate was incubated at 37° C. for 1 h. After the plate was washed 3 times with PBST buffer (pH 7.4, containing 0.05% Tween-20), a 4000-fold diluted goat anti-human HRP secondary antibody (Invitrogen, #A18805) was added. The plate was incubated at 37° C. for 1 h. After the plate was washed, TMB (Biopanda, # TMB-S-003) was added at 100 μL/well. The plate was left away from light at room temperature for 5 min. The reactions were terminated by adding 50 μL of stop buffer (BBI life sciences, #E661006-0200) to each well, and the absorbance values at 450 nm (OD450) were measured using a microplate reader (PerkinElemer, #Enspire).

T1 sequence (Q15116 25-167 limits assumed): as the sequence (Q15116 25-167 limits assumed) above

- EC50 [1]: 0.043 nM
- OD Maximum [1]: 2.85
- EC50 [2]: 7.99 nM
- Maximum (MFI) [2]: 2.63e+06
- Kd [3]: 77 nM
- koff [3]: 0.000768 s⁻¹
- kon [3]: 9970 M⁻¹ s⁻¹
- EC50 [4]: 0.031 nM
- OD Maximum [4]: 3.06
B1: PR002481 (antibody, human IgG1, V domains shown)
VH: EVQLVETGGGLIQPGGSLRLSCAASGFNVSSHYMSWVRQAPGKGREWVSIIDGGGSTYYADSVKGRFTISRDNSKNRLYLQMNSLRAEDTAMYYCARATAVAEKNGYNYPFNYWGQGTLVTVSS
notes: Heavy-chain-only antibody (HCAb), human IgG1 Fc; two heavy chains, no light chain; also called R4004P556D1; anti-PD1 R4004P556D1 HCAb hG1
